Here are results for 23 sequences from a protein production outcome set (Wang et al. 2014).

The data set is described as follows: label from the status in PepcDB records.

As for “MPETMHDNALTQSCTLVTSPELGTMHAMPTYIATKNGEPTAIAIESIAPDGYNGEIKVITGIDNQGKILGTRVLSHQETPGLGDKIDLRVTSWILGFTGKQVTEDNWNSWKVRKDGGDFDQFTGATITPRAVIKAVRNTVNYVNQSRDEILSQPLEHHHHHH”, the protein production entry is “not failed”. Regarding “MPEVRAERYIPAPPERVYRLAKDLEGLKPYLKEVESLEVVAREGARTRSRWVAVAMGKKVRWLEEEEWDDENLRNRFFSPEGDFDRYEGTWVFLPEGEGTRVVLTLTYELTIPIFGGLLRKLVQKLMQENVESLLKGLEERVLAASS”, the protein production result is “not failed”. Next, “MPFEIGTMPIMSIDPKLLEVLACPQDKGPLKYLEAEQVLVNERLEIAYRIDDGIPVMLVDESIAWPPAEKLEHHHHHH”: “failed”; “MPFIYRRRVQFYETDAQGIVHHSNYFRYFEEARGEFLRSKGFPYSKMRDMGLEVVLLNAYCEYKKPLFYDDVFEVHLNLEELSRFTFTFSYIVFKEDIAVAKANTKHCMVKNGKIVSIPKEVLEVLKD”: “not failed”; “MPFNQNVSLECYNGILSMLLNGAPLADILHALVLKIEDQRLGTHASVLLLSEDGKRVLTGAAPHLPDSYNQVIHGVEIGPEVGSCGTAAYTGQRVIVEDIEHHPYWALYKSFALVHGLRACWSEPIKDTQGKVLGTFAMYYKEIKSPTVADLTLIAEAARLASLAIERSRSLEFQRLEHHHHHH”: “not failed”.

For “MPFWLEVVINVAFSYLASVGFALTINVPHRALNLSGISGTVGWMAYWFCFRLGAGRMASNLIGAFLIGILGLVFARIKKCPVTVFNIPALVPLVPGMPAYQAVRAFVVGDYIQGQELILRVAIVTGAIGLGFLLSTMCTEAFYKIRYRHFRNTGLYFKRKK”, the protein production entry was “failed”. On to “MPGFKSDLLIKRMDNEMETWILPTIPAFESTAEIAKIYRVRHQEAIEKSSDIYHFSGFIQEQIVCSLTLTVMGDCARIDDVATFPKYQKNGYATQLILSELQILKDTNISWCFLEASADGLNIYKKIG”, for which the protein production entry was “not failed”.

Turning to “MPGTVGVLSGARSLLLSMVASVTAAGGNAAIVGQPDIGLLAAVEMGADLSRLAMIPDPGTDPVEVAAVLIDGMDLVVLGLGGRRVTRARARAVVARARQKGCTLLVTDGDWQGVSTRLAARVCGYEITPALRGVPTPGLGRISGVRLQINGRGRLEHHHHHH”, the protein production result was “failed”. Regarding “MPGTVSPAPSLQSTTARICPSIRRPTMSRFGALRLPLAVCLAVLLTIASGPARAQPADAPLDEADYGQWERLGGATLSPEGTWMATPIRRVNGNHELRIHHTRRDTTRTVAFGRSPAFSADGQWLAYSIGMSEERRKKRRKQEKPVRRRLGLLNLATGDTTVVPAVSGFAFSDGGRYLAMRRYPPQEAPDDLRGADLLVRDLEAETYTSFGNVADMAWQHEAPHLALTIDGRTETGNGVRLYDAATGRLQTLASTPGDYTGLSWRPAEDDLAALRARDSDDWQHETHVVLAWTGVNDGAPERRQFDPATAGAFPDSLRIVDHRTPAWATERERLFFGVQKREAVAPDTAQADSAAADSLEDYGPAGVKVWHTSDVEIIPRQEVQAEQDREDNYLTAWHLGRSGEAHWTRLGTELTEDVQVLHGGARAVGLDQTPYREERMFGPVYHDLYAIDVATGEREQVAEKVQFFEGPSANGRYLLWLKNDQYHAYDLQQETTNTITADVPVPVVDVDDDHTVEQKPPFGIAGWTAGDRSVLVYSEYDVWRIAPDGSSTERLTTGRADSVRHRYVDLTDEAPGEADVIPRNEPIYWDLYDEWTEEHGYARASALTDTPERMVWKPKMMTGLTKADSADVYAYRVEDFEDSPDYFRAGPQLADARQVTSTNPFQDDYAWGRSDLVAFRNANGKKLQGALFYPADYDPDKTYPMITYIYETRSPQARSYVVPTREHPYNTTTFTQEGYIVFQPDITYRPRDPGNSAVDAIVPGVQAAAEAAAVDTSRIGLVGHSWGGYQTTFTATQTDLFATAVAGAPLTNMVSMYNSIYWRSGGTDARIFEISQGRMGVPPWEDMDAYVANSPLHHIESLNTPFLMAFGTDDGAVEFNQGVEFYNAARRADKELAFLVYDGENHGISRKEKNTVDYRNRVLEWFDHYLKGDEGPAWIQDGVPFLEQVERQEEAAVSR”, the protein production entry is given as “failed”. Next, “MPHFTKRPAQPQAALAEAAGLRWLAEASSAVAQVVSADAEQITTVGVETQLPTPDAAFKAGEELARIHLAGAPAFGCPPAGWAGLNYIGTQGQACLSTPTWGVFYSQQRVLPFARRARRRNHLTEHALWVVEAACDLISELPDDVPPARIHGDLWFGNLLFGTDGPVFIDPAAHGGHPETDLAMLDVFGAPYLDEIREGYLSINPLPDGWRERTPMHQLHPLAVHAASHGPSYGVELLHAAKATLKLLDLEHHHHHH”: “failed”; “MPHLRTILPQLRNNWFFIALLTSCGLWCFFAPSLLGALLFSITVIRIVCTKSFPVILGGFLCSFLIVGGILIFQWLKPVSLLPKEVRLSGQLTILPDEIQVDGDQVKFPANWIVKGKRQKVMAFYQLKSVKEKQQWQQLTTTIQATAVGILDSPQGQTNKNGFNYQLFLKNQGIEAILFIEEIGQPRSFFSWRFKEIISGWRKWAMVHIQKNFAETSAMYMNALLLGFRNEEFAEISDKFSALGILHLFSLSGMHVSFFLRLFRLLMLRIARRTQESYFLWQCGFSLIYAGLTGFSVSVMRALLQTNLNTFNRRFNWQVPALDCWSLTLLVHLIVQPTLFFSVGGQFSYLLSFVLLFLEQTLVGYSSPFIKNCLGSFLLAVASLPILVQSFYEWPLLGSFLTFLLLPIFERFLLPLLTLSFFLVIIMPARYLAALLEPLFLTMNGLFEWVLVHLNPKLTIGYLNSWIQISLLLLIGFSMIYLADKSKKIFFSIGLLIVLINSKYLSPIGIVAMIDVGQGDSLFIQAPFHRKNTLIDTGGRLSFGKEAWRQRKNSRSGAEYSVIPFLKSQGVKRLDEVIITHAHEDHFGDLLAIAQKVPISVLYFPKGAAEANFSFRQVLKQLQKSGTDCRPILAPKRINGPVSFQILSPNKSSIGGNNDSIVFSTQLGGRHFLFTGDLEAEGEEQVLARYPQLKIDILKVGHHGSKTSSTKRFIKQLNPREALISAGLNNRFKHPHQETLATLEEQKINYYRTDLQGMIYYQWLPWQGLSKAKFVKEQD”: “failed”; “MPHPAERSRHGRGWFEKLAEAASNLTSSPVFYCFCLLLVFAFIVAHAVGLELTWQLLIGDIMTAVNLLLLALLKNSERRAEHAIQHKLDSIAAALLEQREGHSRQAHEELRKAIGIEDEF”: “failed”. Next, “MPHPATMFFLFTLAVIFLSWIFDIYGLRVQLPQTGAEIRVQSLLSPEGIRWMLRNAITNFTGFAPLGMVLIAMFGIGVAQHSGFIDACVRQGVKNRKNTKRIILWVIILGLLSNIVGDAGYIILLPIAATLFYSVGLNPVAGIITAYVSVSCGYSANVVLSTMDPLIARTTQEAAIDSGVYQGNTGPLCNYYFMSVSTFVIGAIIYRITCKRLIPSLGQYEGKQIFEGYKQLSRKERRAMTMAIVMGMLYAAIILWATFSSWGILRGVNGGLIRSPFIMGILFLLSLGAAIMGMVYGFSSGRYRSDNDVIEGLAQPMKLLGGYLVIAFFAAQMFACLEYSHLDKCVAIIGANLLSSVQADPLWTLILFILFTATINLIMVSATAKWAFMAFIFVPVFARMGIEPDMTQCAFRIGDSATNAITPFMFYMPLVLTYMQQYDKQATYGSLLKYTWRYSVYILIGWTMLLFIWYLTGLPLGL”: “failed”; “MPHSSTNITKAVLQGRGLYPISLVTGAMFTEEMYVVLESTTRAETFLTPMELQAKLMEYLTGTEVSLSPDLLALPDVESRAQYLMTTACELQLANGGYLQWYAVRLEKLEHHHHHH”: “not failed”; “MPIELRRLRALRLAWGVALCLAVSFGIGLPVPILAPVFAVLLLAMRSQPLPLRAAPALALLVLLACGSGLLLIPLLRHAPLAGVLLVGVGVFLTLRYALKGGNGLLANLLVVGLTMIAAAGTSDFTLALSVVEALAKGMLLAVLGTSVVHTLFPEPANAPAPPVPPLLGSEHVSWVALRATLIVMPAFLLALIAPDQYMPLIMKAVSVGQQAGETRARHASRELIGSTLLAGVLAIALWVALSLFVHLWMFFLWVLLFALWQARRLYQAVPSRQSPAYWVSCLTTMLILLGQSVQDSAGGQDVYKAFAVRMALFLAVSVYASAMLIWIDRLRSRRGLLRG”: “failed”. On to “MPIHSLSLAGFRSIRKLTLELDALNVVVGANGCGKSNLYKSIQLLHAAAEGGLSAALAAEGGAQKAMWAGGTRRGDKARVPKRMILSARLDDYDYELQLGYPEPSCSLFALDPLVKEESLWLAGHGRRPSTLLLERRNQAAFLCGVEGERNSYPASLRAEESLFGQLAEPHRYPELSQVRETLRNWRFYHEFAIWPGSPLRAPQVGIRSPVLAHDGANLAAAFQTIVEIGDHELLHSVLTDAFPDSRFLVDAQQGRFQMLMRRDGLLRPLEAAELSDGTLRFLCLAVALLSPRPPAFMALNEPENSLHPALLPALARLIAEASRHSQLWVTSHSPELAERIRRHRPLKTFQLSLRDGETVLQDDLEHHHHHH”, for which the protein production result was “failed”. “MPIIGTKELITCDNTDFIHSGNDADRSGFILSVPVFGQDGSLRGSVSAIMLTSALRKLLPGSDYVIVNSGYGFESDQHKMSTALAADSRAFTAADPNLIYSEVIPLSLNDPRSAWRLWAGFPNSRFDNNMDVQSVRQFELAGYAAVAVVTLLALACWYAIGRTMTMQVEAAETLERRVEQRTAQIQHLATHDILTGLPNRGLLADTMDEALRSLRDDEKLAVHCVDLDRFKPVNDTLGHPIGDQLLGAVAKRLKHHAGETAMVARIGGDEFVILQLLLDGNDEAGVLASRVIHALSDEFSIQGHKINIGGSIGIAVFPDDGQNSETLIRNADLALYKAKMEGRGTCRSFEPGMDARLQERRQLESELALGVKKEQFVLHYQPLHDAKTSQLTGFEALVRWNHPRLGLLAPSEFIQLAEETGAIDALGEWIMRRACADAAKWPQPVKVAVNLSPAQFKQQGLSLQVAAALAASGLLPSRLELEITESVLLANNENTLNTLYSLRDLGISIAMDDFGTGYSSLSYLRSFPFNRIKIDRSFVSLMCESSESRAIVKAVAELGTTLGMTTTAEGVETEDQYRLVKENGCTDVQGWYFGRPMPASELHTLFEQPEALTA”: the protein production entry is listed as “failed”. Under “MPIKKNSHVKTTEMNKYPVLQLKRDPEAIHHYLNGEIRILVPTEYQRIKNEISQKRHRTLFDVLMITGMRYVEVQRLWDHKEWYLKKKNIIHLPEEAQKKHKRTQQERTIHPLPGMFELLLDDFFEARKPPAESNWNRDLRKWAKDAGLNPYGLSAKTTRKTLESWCIAAGMLESTVCLRQGHDNLTSMKHYQGLAFSADELKDIEKQLTVWGMLK” stands “failed”. On to “MPIKVKYYGNVVFASDAVCGQAENYATLKAMKEVGNYTISIQTFENAENVYPEEFLAKPVADEHYLTTEDGSVGIKGHYLDIVKELIEKDKVDIIFAGGKLGSLAKLAELTRPYGIPTLEHHHHHH”, for which the protein production result is “failed”. Take “MPIPKSAKSDYTKEQKDLVGNICQCKDFYKILNVDKKASPDEIRIAFRKRIREVHPDKCKHPSATEASKVVNNAFSLLMDPAKRRQYDLQ”: the protein production entry is “not failed”. As to “MPIPLEKQNKERRQKILTCSLDLFIEKGYYNTSIRDIIALSEVGTGTFYNYFVDKEDILKNLLEDFAKQIISSISEYYLVEKDLYERFIETKRLTMEVFAQNETLSEIYSRVAGSSAPIDQCLKQFEDRLLEFYSRNIEYGIKKGVFKNVPVSPIAHSILAIEKFSLYKWVVLKAITKEEMIEMVLSFHKTLAVGLLVVND”, the protein production result was “not failed”. As to “MPIVVFHKGDETFTDEVKDNTNLVVRAGIKQFPYPNLRYQCGMGKCATCACRILAGGEHLPEPNWKEKKQLGDRLAQGYRLACQLWITHDIELRQDAAAPAGGGD”, the protein production entry is recorded as “failed”. Under “MPKASDIKKGSAIEHNGKVFFVKEISKLTPSGRAGATLFRMRMYDVATGAKSDESFKADDMINLADFSRRSATFSYVDGNEYVFMDSEDYTPYNFNKEAIEEELLFITEETQGLQILIVDGAPVAIELPSAVDLEIVETAPSIKGASASARTKPATMTTGLTVQVPEYIANGEKVKINTTEHKFMSRALEHHHHHH” stands “failed”.
